Results on one substance are retold here after paper PMC5997990.

For test [1], the target named is T7 helicase-primase gp4A' (wild-type helicase) (bacteriophage T7) (UniProt P03692).
For test [2] the target is unchanged. Description: single-molecule optical trapping (DNA unzipping force); helicase and DNAP in solution with a tethered forked dsDNA, 2 mM dTTP; after helicase unwound ~1000 bp under 9 pN the remaining DNA was unzipped mechanically at 2000 bp/s; a force-rise above the naked DNA baseline shows protein bound across the fork junction; 50 mM Tris-HCl pH 7.5, 40 mM NaCl, 10% glycerol; 25 ± 1 °C.

Turning to “T7 DNA polymerase (gp5/trx complex), exo- gp5 (D5A, D7A) with E. coli thioredoxin (from UniProt P00581 1-704; P0AA25 1-109)”, in test [1], the replication re-initiation efficiency after collision with a stalled E. coli TEC, normalised against the TEC formation efficiency worked out at 15%; the traces that passed a stalled co-directional E. coli TEC and went over to unwinding with leading-strand synthesis, 0.5 mM dNTP each, 5 pN was determined as 12%. In test [2], this substance came in with a peak of the force-rise of 26 pN and a percent of traces with a force-rise above the naked DNA baseline of 75%.
